The text below walks through data of patent US20220119490A1 (Genentech, published 2022).

T1: AXL extracellular domain (human, UniProt P30530 26-451)
T1 construct: extracellular domain; Biotinylated ectodomain on streptavidin sensors in BLI; streptavidin tetramer in the cell assay; also called UFO; tyrosine-protein kinase receptor AXL
T1 sequence (looked up): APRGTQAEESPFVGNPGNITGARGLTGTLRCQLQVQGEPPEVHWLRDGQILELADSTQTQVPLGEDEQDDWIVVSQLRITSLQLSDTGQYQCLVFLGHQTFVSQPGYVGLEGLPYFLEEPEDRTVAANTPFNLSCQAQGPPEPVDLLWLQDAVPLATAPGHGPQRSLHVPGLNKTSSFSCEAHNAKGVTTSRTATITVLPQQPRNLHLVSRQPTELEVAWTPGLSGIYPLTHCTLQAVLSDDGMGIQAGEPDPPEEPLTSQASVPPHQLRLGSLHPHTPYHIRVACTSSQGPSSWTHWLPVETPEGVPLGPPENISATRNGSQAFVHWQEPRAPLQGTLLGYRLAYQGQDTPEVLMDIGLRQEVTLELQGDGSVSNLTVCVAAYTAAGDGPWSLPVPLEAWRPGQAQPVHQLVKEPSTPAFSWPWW

T2: PD-L2 extracellular domain (human, UniProt Q9BQ51 20-220)
T2 construct: extracellular domain; ECD construct; also called PDCD1LG2; programmed cell death 1 ligand 2
T2 sequence (looked up): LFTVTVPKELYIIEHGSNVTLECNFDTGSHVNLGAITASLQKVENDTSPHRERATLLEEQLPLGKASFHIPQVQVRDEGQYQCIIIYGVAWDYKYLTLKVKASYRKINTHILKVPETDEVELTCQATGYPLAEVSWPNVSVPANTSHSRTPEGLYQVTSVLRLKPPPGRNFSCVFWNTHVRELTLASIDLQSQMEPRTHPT

B1: CHL1 extracellular domain (receptor, human, UniProt O00533 25-1082, looked up)
chain: IEIPSSVQQVPTIIKQSKVQVAFPFDEYFQIECEAKGNPEPTFSWTKDGNPFYFTDHRIIPSNNSGTFRIPNEGHISHFQGKYRCFASNKLGIAMSEEIEFIVPSVPKFPKEKIDPLEVEEGDPIVLPCNPPKGLPPLHIYWMNIELEHIEQDERVYMSQKGDLYFANVEEKDSRNDYCCFAAFPRLRTIVQKMPMKLTVNSSNSIKQRKPKLLLPPTESGSESSITILKGEILLLECFAEGLPTPQVDWNKIGGDLPKGRETKENYGKTLKIENVSYQDKGNYRCTASNFLGTATHDFHVIVEEPPRWTKKPQSAVYSTGSNGILLCEAEGEPQPTIKWRVNGSPVDNHPFAGDVVFPREISFTNLQPNHTAVYQCEASNVHGTILANANIDVVDVRPLIQTKDGENYATVVGYSAFLHCEFFASPEAVVSWQKVEEVKPLEGRRYHIYENGTLQINRTTEEDAGSYSCWVENAIGKTAVTANLDIRNATKLRVSPKNPRIPKLHMLELHCESKCDSHLKHSLKLSWSKDGEAFEINGTEDGRIIIDGANLTISNVTLEDQGIYCCSAHTALDSAADITQVTVLDVPDPPENLHLSERQNRSVRLTWEAGADHNSNISEYIVEFEGNKEEPGRWEELTRVQGKKTTVILPLAPFVRYQFRVIAVNEVGRSQPSQPSDHHETPPAAPDRNPQNIRVQASQPKEMIIKWEPLKSMEQNGPGLEYRVTWKPQGAPVEWEEETVTNHTLRVMTPAVYAPYDVKVQAINQLGSGPDPQSVTLYSGEDYPDTAPVIHGVDVINSTLVKVTWSTVPKDRVHGRLKGYQINWWKTKSLLDGRTHPKEVNILRFSGQRNSGMVPSLDAFSEFHLTVLAYNSKGAGPESEPYIFQTPEGVPEQPTFLKVIKVDKDTATLSWGLPKKLNGNLTGYLLQYQIINDTYEIGELNDINITTPSKPSWHLSNLNATTKYKFYLRACTSQGCGKPITEESSTLGEGSKGIGKISGVNLTQKTHPIEVFEPGAEHIVRLMTKNWGDNDSIFQDVIETRGREYAGLYDDISTQGW
notes: extracellular domain; Soluble query (streptavidin tetramer) in cell assays; recombinant protein (R&D) in SPR; also called neural cell adhesion molecule L1-like protein; close homolog of L1
B2: IL1RL1 extracellular domain (receptor, human, UniProt Q01638 19-328, looked up)
chain: KFSKQSWGLENEALIVRCPRQGKPSYTVDWYYSQTNKSIPTQERNRVFASGQLLKFLPAAVADSGIYTCIVRSPTFNRTGYANVTIYKKQSDCNVPDYLMYSTVSGSEKNSKIYCPTIDLYNWTAPLEWFKNCQALQGSRYRAHKSFLVIDNVMTEDAGDYTCKFIHNENGANYSVTATRSFTVKDEQGFSLFPVIGAPAQNEIKEVEIGKNANLTCSACFGKGTQFLAAVLWQLNGTKITDFGEPRIQQEEGQNQSFSNGLACLDMVLRIADVKEEDLLLQYDCLALNLHGLRRHTVRLSRKNPIDHHS
notes: extracellular domain; Soluble analyte in BLI
B3: CNTN5 expressed on cells (receptor, human, UniProt O94779 19-1072, looked up)
chain: EYSKSLPGLSTSYAALLRIKKSSSSSLFGSKTRPRYSSPSLGTLSASSPSWLGAAQNYYSPINLYHSSDAFKQDESVDYGPVFVQEPDDIIFPTDSDEKKVALNCEVRGNPVPSYRWLRNGTEIDLESDYRYSLIDGTFIISNPSEAKDSGHYQCLATNTVGSILSREATLQFAYLGNFSGRTRSAVSVREGQGVVLMCSPPPHSPEIIYSWVFNEFPSFVAEDSRRFISQETGNLYISKVQTSDVGSYICLVKNTVTNARVLSPPTPLTLRNDGVMGEYEPKIEVHFPFTVTAAKGTTVKMECFALGNPVPTITWMKVNGYIPSKARLRKSQAVLEIPNVQLDDAGIYECRAENSRGKNSFRGQLQVYTYPHWVEKLNDTQLDSGSPLRWECKATGKPRPTYRWLKNGVPLSPQSRVEMVNGVLMIHNVNQSDAGMYQCLAENKYGAIYASAELKILASAPTFALNQLKKTIIVTKDQEVVIECKPQGSPKPTISWKKGDRAVRENKRIAILPDGSLRILNASKSDEGKYVCRGENVFGSAEIIASLSVKEPTRIELTPKRTELTVGESIVLNCKAIHDASLDVTFYWTLKGQPIDFEEEGGHFESIRAQASSADLMIRNILLMHAGRYGCRVQTTADSVSDEAELLVRGPPGPPGIVIVEEITESTATLSWSPAADNHSPISSYNLQARSPFSLGWQTVKTVPEIITGDMESAMAVDLNPWVEYEFRVVATNPIGTGDPSTPSRMIRTNEAVPKTAPTNVSGRSGRRHELVIAWEPVSEEFQNGEGFGYIVAFRPNGTRGWKEKMVTSSEASKFIYRDESVPPLTPFEVKVGVYNNKGDGPFSQIVVICSAEGEPSAAPTDVKATSVSVSEILVAWKHIKESLGRPQGFEVGYWKDMEQEDTAETVKTRGNESFVILTGLEGNTLYHFTVRAYNGAGYGPPSSEVSATTKKSPPSQAPSNLRWEQQGSQVSLGWEPVIPLANESEVVGYKVFYRQEGHSNSQVIETQKLQAVVPLPDAGVYIIEVRAYSEGGDGTASSQIRVPSYSGGKITS
notes: whole, on cells; also called contactin 5
B4: TNFRS11A_DNA742118 (receptor, human, UniProt Q9Y6Q6 30-212, looked up)
extracellular domain construct of the screen: IAPPCTSEKHYEHLGRCCNKCEPGKYMSSKCTTTSDSVCLPCGPDEYLDSWNEEDKCLLHKVCDTGKALVAVVAGNSTTPRRCACTAGYHWSQDCECCRRNTECAPGLGAQHPLQLNKDTVCKPCLAGYFSDAFSSTDKCRPWTNCTFLGKRVEHHGTEKSDAVCSSSLPARKPPNEPHVYLP
notes: extracellular domain; also called TNFRSF11A

In one experiment the target is T3, L1CAM expressed on cells (human, UniProt P32004 20-1257).
T3 construct: whole, on cells; also called L1 cell adhesion molecule
T3 sequence (P32004 20-1257): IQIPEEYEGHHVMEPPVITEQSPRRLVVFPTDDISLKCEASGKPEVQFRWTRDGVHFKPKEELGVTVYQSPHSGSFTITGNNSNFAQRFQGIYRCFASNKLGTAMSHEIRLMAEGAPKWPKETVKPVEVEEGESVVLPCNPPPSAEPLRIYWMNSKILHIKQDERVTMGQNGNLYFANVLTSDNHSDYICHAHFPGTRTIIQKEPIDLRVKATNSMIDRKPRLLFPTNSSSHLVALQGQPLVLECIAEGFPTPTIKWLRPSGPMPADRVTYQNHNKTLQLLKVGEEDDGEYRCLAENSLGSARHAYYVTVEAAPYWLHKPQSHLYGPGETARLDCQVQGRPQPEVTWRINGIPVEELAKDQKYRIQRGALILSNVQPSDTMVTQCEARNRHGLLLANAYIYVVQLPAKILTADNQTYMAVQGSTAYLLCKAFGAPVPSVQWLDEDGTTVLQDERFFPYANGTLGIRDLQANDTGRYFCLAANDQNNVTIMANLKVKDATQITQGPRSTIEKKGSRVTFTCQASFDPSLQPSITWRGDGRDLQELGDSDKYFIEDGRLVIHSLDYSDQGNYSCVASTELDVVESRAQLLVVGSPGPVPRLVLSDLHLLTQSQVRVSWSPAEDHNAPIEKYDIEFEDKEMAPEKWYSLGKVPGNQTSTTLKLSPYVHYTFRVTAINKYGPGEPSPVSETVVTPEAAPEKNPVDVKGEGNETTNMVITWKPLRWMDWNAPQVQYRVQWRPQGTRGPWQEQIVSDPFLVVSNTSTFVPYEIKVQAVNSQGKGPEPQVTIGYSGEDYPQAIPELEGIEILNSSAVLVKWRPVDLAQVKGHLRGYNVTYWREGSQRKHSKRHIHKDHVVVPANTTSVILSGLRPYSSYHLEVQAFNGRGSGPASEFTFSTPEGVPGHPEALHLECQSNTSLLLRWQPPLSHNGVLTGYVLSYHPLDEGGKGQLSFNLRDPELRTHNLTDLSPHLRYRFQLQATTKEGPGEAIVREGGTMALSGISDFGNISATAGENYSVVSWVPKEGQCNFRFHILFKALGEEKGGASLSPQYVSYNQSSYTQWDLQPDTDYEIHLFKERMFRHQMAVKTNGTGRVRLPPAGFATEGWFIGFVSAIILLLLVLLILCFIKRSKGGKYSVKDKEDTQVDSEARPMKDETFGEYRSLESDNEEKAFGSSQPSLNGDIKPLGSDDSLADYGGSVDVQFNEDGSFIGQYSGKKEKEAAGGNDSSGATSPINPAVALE
Nature of the experiment: cell surface interaction assay: streptavidin-tetramerized biotinylated ECD on transfected cells, immunofluorescence. The text has this:
FIG. 3H is a schematic showing the design of the cell surface interaction assay.

The target of another experiment is T1, AXL extracellular domain. The experiment is described as follows: biolayer interferometry, biotinylated AXL ectodomain on streptavidin sensors, IL1RL1 ectodomain in solution. On the procedure: Interactions between AXL and the binding partners IL1RL1 and Gas6 were assayed by biolayer interferometry using an Octet Red system, as previously described (Husain et al., Mol Cell Proteomics, 18: 2310-2323, 2019). […] Data were analyzed using Forte Pall (Port Washington, N.Y.) software 9.0.

The target in experiment [1] is B1. Nature of the experiment: cell surface interaction assay: streptavidin-tetramerized biotinylated ECD on transfected cells, immunofluorescence.
Experiment [2] has as its target T2, PD-L2 extracellular domain. Nature of the experiment: extracellular interaction screen, normalized intensity; labelled dot against the clone named on the axis; which is query and which prey is not given; colour of the predicted class lost.

Regarding B1, the binding result with L1CAM expressed on cells is “binds”.

As for B2, the binding result with AXL extracellular domain is reported as “binds”.

In the case of B3, the binding result in experiment [1] is “binds”.

B4: the binding result in experiment [2] is reported as “binds”.
